The values below come from patent publication US20230331836A1 (SUZHOU TRANSCENTA THERAPEUTICS, published 2023).

Experiment [1] has as its target T1, Human recombinant CLDN18.2 (N-6His) variant (human).
T1 construct: Bought fusion polypeptide; also called recombinant hCLDN18.2 variant protein; Novoprotein NC101
T1 chain: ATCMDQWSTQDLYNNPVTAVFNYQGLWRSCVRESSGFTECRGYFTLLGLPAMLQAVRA
As to the kind of experiment: BLI (ForteBio Octet RED 96): His-tagged recombinant hCLDN18.2 variant loaded on Ni-NTA biosensors, antibody in solution at 50 nM and 25 nM. On the procedure: (§1) 100 nM human recombinant CLDN18.2 (N-6His) (Novoprotein, NC101) protein in 1×Kinetics Buffer ((PBS+0.1% BSA+0.02% Tween20) were loaded onto pre-wet Ni-NTA biosensors (PALL, 18-5101) for 200s. After equilibrated in 1×Kinetics Buffer as baseline (60s), the sensor was immersed into serial diluted antibodies (50 nM, 25 nM) with 1×Kinetics Buffer respectively and incubated for 200s to determine the association (kon), followed by dissociation in 1×Kinetics Buffer for 200s (koff). The biosensors are regenerated for 5s in Regeneration Buffer, followed by neutralization for 5s in Neutralization Buffer for 3 times. All procedure were performed at 30° C. with Octet RED 96 (PALL). The binding affinity KD was calculated and analyzed using the ratio of koff to kon. (FIG. 6).
On the technique in general: BLI is a label-free optical method that tracks binding on a fibre tip over time.

The target of experiment [2] is T2, human CLDN18.1 (human, UniProt P56856 1-261).
T2 construct: also called hCLDN18.1
T2 sequence: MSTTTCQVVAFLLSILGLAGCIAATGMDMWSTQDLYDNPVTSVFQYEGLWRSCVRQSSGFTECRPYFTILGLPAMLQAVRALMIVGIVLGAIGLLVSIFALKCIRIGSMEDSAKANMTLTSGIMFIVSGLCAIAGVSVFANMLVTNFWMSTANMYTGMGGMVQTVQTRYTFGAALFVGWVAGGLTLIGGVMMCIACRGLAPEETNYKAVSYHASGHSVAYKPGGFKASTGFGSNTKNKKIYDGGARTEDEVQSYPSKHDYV
The experiment is described as follows: ICC on FFPE HEK293-CLDN18.1 cell block sections; clone 69H2F7E6; '-' = negative staining.

The target in experiment [3] is T3, hCLDN18.2 peptide (amino acid residues 28-37 of hCLDN18.2) (human).
T3 construct: Synthesised by Sangon Biotech; coated on ELISA plates; also called antigen peptide; hCLDN18.2 Peptide (aa28-37)
T3 peptide: DQWSTQDLYN
The experiment is described as follows: ELISA: hCLDN18.2 peptide (aa 28-37) coated on the plate at 1 ug/ml, antibody dilution series up to 150 ng/mL, detection with goat anti-mouse IgG-HRP, OD450-OD620. The procedure: (§2) 1 μg/ml of peptide ([…]) was coated onto the high-binding clear polystyrene 96 well plates and blocked with blocking buffer. Serial diluted antibodies (from 150 to 0.0732 ng/ml) in blocking buffer were then added and incubated for 1.5 hrs at room temperature. The plate was washed 6 times using washing buffer and then 100 μl/well Goat pAb to Ms IgG(HRP) was added for incubation at room temperature for 1.5 hr. After washing with washing buffer, TMB was added to react with HRP on the plate. Then OD450 nm of the plate was read by SpectraMax i3x (Molecular Devices). 14G11G2D2 and 69H2F7E6 can specifically bind with the peptide with high affinity while GC182 can not recognize the epitope in the linear peptide. (FIG. 3)
(In general: ELISA stands for enzyme-linked immunosorbent assay.)

The target in experiment [4] is T1, Human recombinant CLDN18.2 (N-6His) …. As to the kind of experiment: BLI (ForteBio Octet RED 96), His-tagged antigen on Ni-NTA sensors, antibody 50 and 25 nM in solution, 30 C. On the procedure: as §1
Experiment [5] shares this target. As to the kind of experiment: ELISA on coated recombinant CLDN18.2 (N-6His) variant (1 µg/ml). On the procedure: 1 μg/ml of human recombinant CLDN18.2 (N-6His) variant or human recombinant CLDN18.1 (N-8His) variant (100 μL/well) was coated onto the high-binding clear polystyrene 96 well plates and blocked with blocking buffer. Serial diluted antibodies (from 100 to 0.0244 ng/ml) in blocking buffer were added and incubated for 1.5 hrs at room temperature. The plate was washed 6 times using washing buffer (PBS+0.1% Tween) washer and then 100 μl/well Goat pAb to Ms IgG (HRP) was added for incubation at RT for 1.5 hr. After washing with washing buffer, TMB was added to react with RP on the plate. Then OD450 nm of the plate was read by SpectraMax i3x (Molecular Devices).

The target of experiment [6] is T2, human CLDN18.1. The experiment is described as follows: ICC on FFPE HEK293-CLDN18.1 cell block sections; clone 14G11F5E1; '-' = negative staining.
Experiment [7] deals with T3, hCLDN18.2 peptide (amino acid residues …). The experiment is described as follows: ELISA on coated peptide. The procedure:
as §2

B1: 69H2 (antibody, mouse IgG1, kappa, V domains shown)
VH: QVQLQQSGPELMKPGASLQISCKASGYFFTTYYIHWVKQRPGQGLEWIGWIYPRGGNTVYNEKFKGKATLTSDTSSSTAYMQLSSLTSEDSAVYYCAINYRSTFGYWGQGTLVTVSA
VL: DVLMTQTPLSLPVSLGDQASISCRSSQNIVHSNGNTYLEWYLQKPGQSPKLLIYKISNRFSGVPDRFSGSGSGTDFTLKISRVEAEDLGVYYCFQGSHVPFTFGSGTKLEIKR
notes: Mouse antibody; the recombinant form is VH/VL fused to mouse IgG1 / kappa constant regions; also called 69H2F7E6; 69H2D3B1
For B1, in experiment [1], the koff amounted to 0.000695 s⁻¹ and the kon came out at 471000 M⁻¹ s⁻¹. Further, the binding result in the experiment with human CLDN18.1 [2] was “no binding (tested: 1 nM)”. This molecule also had an EC50 in experiment [3] of 0.0143 µg/mL. Besides, in experiment [4], the Kd came to 1.48 nM. Moreover, the half-maximal effective concentration (EC50) in experiment [5] is 0.0139 µg/mL.

B2: 14G11 (antibody, mouse IgG1, kappa, V domains shown)
VH: QVQLQQSGPELVRPGASVKISCKASGYRFTRNYFHWVKQRPGQGLEWIGWIYPGGFDIEYSEKFKGKATLTTDTSSSTAYMLLTSLTSEDSAVYYCAINYGSTFGYWGQGTLVTVSV
VL: DVLMTQTPLSLPVSLGDQASISCRSSQNIVHSNGNTYLEWYLQRPGQSPKLLIYKVSNRFSGVPDRFSGSGSGTDFTLKINRVEAEDLGVYYCFQGSHVPFTFGSGTKLEIKR
notes: Mouse antibody; the recombinant form is VH/VL fused to mouse IgG1 / kappa constant regions; also called 14G11G2D2; 14G11A4E1
As for B2, in experiment [1], the koff is 0.000111 s⁻¹ and the kon was 522000 M⁻¹ s⁻¹. In the experiment with human CLDN18.1 [6], the binding result is reported as “no binding (tested: 0.5 nM)”. Moreover, in experiment [3], the midpoint of the response, the EC50, lay at 0.027 µg/mL. Moreover, the dissociation constant Kd in experiment [4] worked out at 0.213 nM. Moreover, the EC50 in experiment [5] came out at 0.0127 µg/mL.

B3: GC182 (antibody, V domains shown)
VH: QIQLVQSGPELKKFGETVKISCKASGYTFTDYSIHWVKQAPGKGLKWMGWINTETGVPTYADDFKGRFAFSLETSASTAYLQINNLKNEDTATYFCARRTGFDYWGQGTTLTVSS
VL: DIVMTQAAFSIPVTLGTSASISCRSSKNLLHSDGITYLYWYLQRPGQSPQLLIYRVSNLASGVPNRFSGSESGTDFTLRISRVEAEDVGVYYCVQVLELPFTFGGGTKLEIK
notes: also called anti-CLDN18.2 antibody GC182
In the case of B3, the binding result in experiment [7] is recorded as “no binding (tested: 150 ng/ml (highest concentration tested))”.

Broadly, the koff is the rate constant with which the complex falls apart. In general, kon refers to a measure of how fast the partners come together. As usually defined, the EC50 is the concentration at which the effect is half-maximal. The Kd is the constant that tells how readily two partners part at equilibrium.
